The results in this text go back to doi:10.1101/2024.02.06.579105.

What all share (test): SEC
(In gel filtration, larger molecules generally elute earlier.)

Assay [1] addresses MalE-DmxA^WT (M. xanthus).
In assay [2] the target is MalE-DmxA^R615A (M. xanthus).
Assay [3] addresses MalE-DmxA^GAF×2 (M. xanthus).
Assay [4] has as its target MalE-DmxA^E626A (M. xanthus).

In the case of MalE-DmxA^WT (domain or fragment), in assay [1], the stoichiometry N (in general, the number of molecules, sites or subunits per partner or assembly) came out at 2.
Substance MalE-DmxA^R615A (domain or fragment) came in with a stoichiometry N in assay [2] of 2.
Regarding MalE-DmxA^GAF×2 (domain or fragment), the stoichiometry N in assay [3] was 2.
MalE-DmxA^E626A (domain or fragment) yielded a stoichiometry N in assay [4] of 2.
